One series deals with T1, P-selectin (PS-Rg) (Homo sapiens, UniProt P16109 P16109:42-321).
T1 chain: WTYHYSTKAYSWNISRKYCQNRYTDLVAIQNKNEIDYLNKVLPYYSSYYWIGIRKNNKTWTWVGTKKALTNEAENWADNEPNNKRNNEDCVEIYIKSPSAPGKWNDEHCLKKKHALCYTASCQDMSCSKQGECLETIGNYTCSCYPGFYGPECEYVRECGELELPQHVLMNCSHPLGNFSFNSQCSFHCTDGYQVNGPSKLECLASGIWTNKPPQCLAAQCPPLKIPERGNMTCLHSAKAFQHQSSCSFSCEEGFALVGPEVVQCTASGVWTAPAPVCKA
Put plainly: filter; room temp, Ca/Mg buffer. To be noted: tags: lectin, EGF and first two CRD domains fused to human IgG1 Fc (provided by A. Varki); chain copies: 2 (dimeric Fc chimera, inferred). On the procedure:
(§1) RNA was reverse transcribed into cDNA by AMV reverse transcriptase at 48° C. for 60 min in 50 mM Tris-Cl pH (8.3), 60 mM NaCl, 6 mM Mg(OAc)_2, 10 mM DTT, 100 pmol DNA primer, 0.4 mM each of dNTPs, and 0.4 unit/µl AMV RT. […] C) Nitrocellulose Filter Partitioning As described in SELEX Patent Applications, the nitrocellulose filter partitioning method was used to determine the affinity of RNA ligands for WGA and for other proteins. Filter discs (nitrocellulose/cellulose acetate mixed matrix, 0.45 µm pore size, Millipore; or pure nitrocellulose, 0.45 µm pore size, Bio-Rad) were placed on a vacuum manifold and washed with 4 ml of HBSS buffer under vacuum. Reaction mixtures, containing ^32P labeled RNA pools and unlabeled WGA, were incubated in HBSS for 10 min at room temperature, filtered, and then immediately washed with 4 ml HBSS. The filters were air-dried and counted in a Beckman LS6500 liquid scintillation counter without fluor. WGA is a homodimer, molecular weight 43.2 kD, with 4 GlcNAc binding sites per dimer. For affinity calculations, we assume one RNA ligand binding site per monomer (two per dimer). The monomer concentration is defined as 2 times the dimer concentration. The equilibrium dissociation constant, K_d, for an RNA pool or specific ligand that binds monophasically is given by the equation $$K_d=[P_f][R_f]/[RP]$$
(§2) The affinity of representative cloned ligands for LS-Rg, ES-Rg, PS-Rg, CD22β-Rg and WGA was determined by nitrocellulose partitioning and the results shown in Table XIV. The ligands are highly specific for L-selectin.
(§3) *Kds were determined at room temperature.

Series [1] deals with T2, E-selectin (ES-Rg) (Homo sapiens, UniProt P16581 P16581:22-556).
T2 chain: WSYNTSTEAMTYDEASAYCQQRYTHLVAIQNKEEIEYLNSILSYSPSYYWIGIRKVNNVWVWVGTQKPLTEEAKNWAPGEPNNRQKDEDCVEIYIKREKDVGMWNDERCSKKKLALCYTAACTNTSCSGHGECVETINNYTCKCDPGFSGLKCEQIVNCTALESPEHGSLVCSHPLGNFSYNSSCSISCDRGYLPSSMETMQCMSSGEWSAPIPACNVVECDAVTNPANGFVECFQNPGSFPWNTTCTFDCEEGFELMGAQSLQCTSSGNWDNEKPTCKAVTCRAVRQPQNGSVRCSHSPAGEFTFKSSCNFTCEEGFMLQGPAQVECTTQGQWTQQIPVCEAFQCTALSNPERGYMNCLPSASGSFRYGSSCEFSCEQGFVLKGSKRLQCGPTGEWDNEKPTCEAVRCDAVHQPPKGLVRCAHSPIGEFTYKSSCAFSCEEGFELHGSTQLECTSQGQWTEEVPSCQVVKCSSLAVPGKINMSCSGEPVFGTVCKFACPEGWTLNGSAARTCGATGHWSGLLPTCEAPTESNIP
The series can be described thus: filter; room temp, Ca/Mg buffer. Conditions: tags: extracellular domain fused to human IgG1 Fc (provided by A. Varki); chain copies: 2 (dimeric Fc chimera, inferred). As to the method: as §1, §2, §3

Series [2] concerns the target T3, L-selectin (LS-Rg) (Homo sapiens, UniProt P14151 P14151:39-332).
T3 chain: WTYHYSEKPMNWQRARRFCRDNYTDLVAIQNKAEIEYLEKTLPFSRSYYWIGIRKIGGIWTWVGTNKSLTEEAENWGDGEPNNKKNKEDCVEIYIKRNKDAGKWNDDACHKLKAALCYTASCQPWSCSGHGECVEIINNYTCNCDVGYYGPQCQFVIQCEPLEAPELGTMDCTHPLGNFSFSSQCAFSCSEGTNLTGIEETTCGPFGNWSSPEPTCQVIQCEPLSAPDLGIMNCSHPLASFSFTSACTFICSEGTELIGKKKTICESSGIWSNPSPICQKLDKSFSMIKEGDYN
Put plainly: filter; room temp; 2.1 nM at 37 C. Conditions: tags: human IgG2 Fc fusion (provided by A. Varki); label: 32P.

For series [3], the target named is T3, L-selectin (LS-Rg). Put plainly: filter; room temp; 8.4 nM at 37 C. Conditions: tags: human IgG2 Fc fusion (provided by A. Varki); label: 32P.
Series [4] has as its target T3, L-selectin (LS-Rg). Put plainly: filter; room temp; 6.0 nM at 37 C. To be noted: tags: human IgG2 Fc fusion (provided by A. Varki); label: 32P.
Series [5] concerns the target T4, Ulex europaeus lectin UEA-II (Ulex europaeus, UniProt P22973 P22973:1-249).
T4 sequence: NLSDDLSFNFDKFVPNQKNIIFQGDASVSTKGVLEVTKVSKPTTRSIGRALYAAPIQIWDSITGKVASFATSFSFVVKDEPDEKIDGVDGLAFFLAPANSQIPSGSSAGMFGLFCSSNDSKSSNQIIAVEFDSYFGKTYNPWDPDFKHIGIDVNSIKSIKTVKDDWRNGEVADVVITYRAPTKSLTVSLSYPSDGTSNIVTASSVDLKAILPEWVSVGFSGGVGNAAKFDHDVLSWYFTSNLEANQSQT
Put plainly: filter; HBSS, room temp. To be noted: tags: E Y Laboratories; label: 32P; hairpin. As to the method:
as §1, with “The specifically eluted fraction was processed for use in the following round. Fractions eluted from immobilized WGA were heated at 90° C. for 5 minutes in 1% SDS, 2% β-mercaptoethanol and extracted with phenol/chloroform. RNA was” for “RNA was”, “per dimer). […]” for “per dimer). The monomer concentration is defined as 2 times the dimer concentration. The equilibrium dissociation constant, K_d, for an RNA pool or specific ligand that binds monophasically is given by the equation $$K_d=[P_f][R_f]/[RP]$$”

Series [6] addresses T5, wheat germ agglutinin (WGA) (Triticum vulgare, UniProt P10968 P10968:27-197).
T5 sequence: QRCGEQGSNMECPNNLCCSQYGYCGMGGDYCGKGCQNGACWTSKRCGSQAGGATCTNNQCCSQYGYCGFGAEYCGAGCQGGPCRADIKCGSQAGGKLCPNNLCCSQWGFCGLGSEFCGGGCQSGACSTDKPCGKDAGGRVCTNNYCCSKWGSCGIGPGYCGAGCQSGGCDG
The series can be described thus: filter; HBSS, room temp; 11.4 nM in Table IV. Conditions: tags: free lectin, E Y Laboratories; label: 32P; hairpin. As to the method: as §1, with “The specifically eluted fraction was processed for use in the following round. Fractions eluted from immobilized WGA were heated at 90° C. for 5 minutes in 1% SDS, 2% β-mercaptoethanol and extracted with phenol/chloroform. RNA was” for “RNA was”, “per dimer). […]” for “per dimer). The monomer concentration is defined as 2 times the dimer concentration. The equilibrium dissociation constant, K_d, for an RNA pool or specific ligand that binds monophasically is given by the equation $$K_d=[P_f][R_f]/[RP]$$”

Series [7] concerns the target T5, wheat germ agglutinin (WGA). The series can be described thus: filter; HBSS, room temp; printed as 11.3, SEQ 54. Conditions: tags: free lectin, E Y Laboratories; label: 32P. As to the method: The specifically eluted fraction was processed for use in the following round. Fractions eluted from immobilized WGA were heated at 90° C. for 5 minutes in 1% SDS, 2% β-mercaptoethanol and extracted with phenol/chloroform. RNA was reverse transcribed into cDNA by AMV reverse transcriptase at 48° C. for 60 min in 50 mM Tris-Cl pH (8.3), 60 mM NaCl, 6 mM Mg(OAc)_2, 10 mM DTT, 100 pmol DNA primer, 0.4 mM each of dNTPs, and 0.4 unit/µl AMV RT. […] C) Nitrocellulose Filter Partitioning As described in SELEX Patent Applications, the nitrocellulose filter partitioning method was used to determine the affinity of RNA ligands for WGA and for other proteins. Filter discs (nitrocellulose/cellulose acetate mixed matrix, 0.45 µm pore size, Millipore; or pure nitrocellulose, 0.45 µm pore size, Bio-Rad) were placed on a vacuum manifold and washed with 4 ml of HBSS buffer under vacuum. Reaction mixtures, containing ^32P labeled RNA pools and unlabeled WGA, were incubated in HBSS for 10 min at room temperature, filtered, and then immediately washed with 4 ml HBSS. The filters were air-dried and counted in a Beckman LS6500 liquid scintillation counter without fluor. […]
The dissociation constants for representative members of families 1–9 and orphan ligands were determined by nitrocellulose filter binding experiments and are listed in Table III. […]

Series [8] has as its target T3, L-selectin (LS-Rg). The series can be described thus: filter; room temp; 11.8 nM at 37 C. Conditions: tags: human IgG2 Fc fusion (provided by A. Varki); label: 32P; hairpin.
For series [9], the target named is T3, L-selectin (LS-Rg). The series can be described thus: filter; room temp; 0.65 nM at 37 C. To be noted: tags: human IgG2 Fc fusion (provided by A. Varki); label: 32P; hairpin.
Series [10] addresses T3, L-selectin (LS-Rg). Put plainly: filter; room temp; 8.8 nM at 37 C. Conditions: tags: human IgG2 Fc fusion (provided by A. Varki); label: 32P; hairpin.
In series [11] the target is T3, L-selectin (LS-Rg). The series can be described thus: filter; 4 C, HSMC (Ca/Mg); biphasic, fraction 0.68, low affinity Kd 60 nM; 1.0 nM at room temp. Conditions: tags: human IgG2 Fc fusion (provided by A. Varki); label: 32P; pseudoknot. As to the method: (§4) As described in SELEX Patent Applications, the nitrocellulose filter partitioning method was used to determine the affinity of RNA ligands for LS-Rg and for other proteins. Filter discs (nitrocellulose/cellulose acetate mixed matrix, 0.45 um pore size, Millipore) were placed on a vacuum manifold and washed with 2 ml of HSMC buffer under vacuum. Reaction mixtures, containing ^32P labeled RNA pools and unlabeled LS-Rg, were incubated in HSMC for 10–20 min at 4° C., room temperature or 37° C., filtered, and then immediately washed with 4 ml HSMC at the same temperature. The filters were air-dried and counted in a Beckman LS6500 liquid scintillation counter without fluor.
The dissociation constants for representative ligands from rounds 13 and 14, including all orphans, were determined by nitrocellulose filter binding experiments and are listed in Table IX. These calculations assume two RNA ligand binding sites per chimera. The affinity of random RNA cannot be reliably determined but is estimated to be approximately 10 µM.

In series [12] the target is T2, E-selectin (ES-Rg). Put plainly: filter; 4 C, HSMC. Conditions: tags: human IgG1 Fc fusion (provided by A. Varki); chain copies: 2; label: 32P; pseudoknot. As to the method:
as §4
The affinity of L-selectin ligands to ES-Rg, PS-Rg and CD22β-Rg were determined by nitrocellulose partitioning. […] In general, a ligand's affinity for ES-Rg is 10^3-fold lower and that for PS-Rg is about 10^4-fold less than for LS-Rg. […] The specificity of oligonucleotide ligand binding contrasts sharply with the binding of cognate carbohydrates by the selectins and confirms the assertion that SELEX ligands will have greater specificity than carbohydrate ligands.
*Dissociation constants were determined at 4° C. in HSMC buffer.

B1: 122 (ssDNA)
DNA: CTACCTACGATCTGACTAGCGCAACGTGGCCCCGTTTAGCTCATTTGACCGTTCCATCCGGCTTACTCTCATGTAGTTCC
With B1, the values for the dissociation constant (Kd) with P-selectin (PS-Rg), with E-selectin (ES-Rg) [1] and with L-selectin (LS-Rg) [2] were 420 nM, 400 nM and 1.8 nM, respectively.

B2: 214 (ssDNA)
DNA: CTACCTACGATCTGACTAGCTGATGCGACTTTAGTCGAACGTTACTGGGGCTCAGAGGACAGCTTACTCTCATGTAGTTCC
Take B2: the equilibrium dissociation constant (Kd) with L-selectin (LS-Rg) [3] stood at 0.66 nM.

B3: 206 (ssDNA)
DNA: CTACCTACGATCTGACTAGCAGCGTTGTACGGGGTTACACACAACGATTTAGATGCTCTGCTTACTCTCATGTAGTTCC
Regarding B3, the dissociation constant Kd amounted to 600 nM with P-selectin (PS-Rg), 100 nM with E-selectin (ES-Rg) [1] and 0.33 nM with L-selectin (LS-Rg) [4].

B4: 6.8 (ssRNA)
RNA: GGGAAAAGCGAAUCAUACACAAGAAAGGGAUGGGAUUGGGACGAGCGGCCAAGACUCGGCGGGAACGAAGGGUCCGCUCCGCCAGAGACCAACCGAGAA
modifications: 2'-NH2 all C and U
As to B4, the Kd in [5] is 4400 nM; in series [6], 11 nM.

B5: 11.30 (ssRNA)
RNA: GGGAAAAGCGAAUCAUACACAAGACGGUUGCUGAACAGAACGUGAGUCUUGGUGAGUCGCACAGAUUGUCCUGCUCCGCCAGAGACCAACCGAGAA
modifications: 2'-NH2 all C and U
For the molecule B5, binding in series [7] was characterised by a dissociation constant (Kd) of 56 nM.

B6: 111 (ssDNA)
DNA: CTACCTACGATCTGACTAGCTACACAAGGTGCTAAACGTAGAGCCAGATCGGATCTGAGCGCTTACTCTCATGTAGTTCC
Regarding B6, the values for the Kd with P-selectin (PS-Rg), with E-selectin (ES-Rg) [1] and in the series with L-selectin (LS-Rg) [8] were 840 nM, 1200 nM and 0.33 nM, respectively.

B7: 137 (ssDNA)
DNA: CTACCTACGATCTGACTAGCTACCCCTTGGGCCTCATAGACAAGGTCTTAAACGTTAGCGCTTACTCTCATGTAGTTCC
Consider B7, for which the Kd with L-selectin (LS-Rg) [9] amounted to 0.52 nM.

B8: 145 (ssDNA)
DNA: CTACCTACGATCTGACTAGCCCCCGAAGAACATTTTACAAGGTGCTAAACGTAAAATCAGGCTTACTCTCATGTAGTTCC
B8 yielded an equilibrium dissociation constant (Kd) with L-selectin (LS-Rg) [10] of 0.92 nM.

B9: F14.20 (ssRNA)
RNA: GGGAGGACGAUGCGGUAACAACAAUCAAGGCGGGUUCACCGCCCCAGUAUGAGUGCAGACGACUCGCCCGA
modifications: 2'-NH2 all C and U
For the molecule B9, the Kd is 0.058 nM with L-selectin (LS-Rg) [11] and 70 nM with E-selectin (ES-Rg) [12].
